# Measurements: patent US7910100B2, “Antibodies directed to the mammalian EAG1 ion channel protein” (Max-Planck-Gesellschaft zur Forderung der Wissen, priority 2004, dated 2011)
# B1: ImAb4: mouse monoclonal anti-Eag1 antibody, IgG2b kappa; light chain SEQ ID NO: 2, heavy chain SEQ ID NO: 4 (antibody, listed as Mus musculus)
# heavy: MRVLILLWLFTAFPGILSDVQLQESGPGLVKPSQSLSLTCTVTGYSITSDYAWNWIRQFPGNKLEWMGYISYSGSTIYNPSLKSRISITRDTSKNQFFLQLNSVTTEDTATYYCARFGNYGNTLNYWGQGTSVTVSSAKTTPPSVYPLAPGCGDTTGSSVTLGCLVKGYFPESVTVTWNSGSLSSSVHTFPALLQSGLYTMSSSVTVPSSTWPSQTVTCSVAHPASSTTVDKKLEPSGPISTINPCPPCKECHKCPAPNLEGGPSVFIFPPNIKDVLMISLTPKVTCVVVDVSEDDPDVQISWFVNNVEVHTAQTQTHREDYNSTIRVVSTLPIQHQDWMSGKEFKCKVNNKDLPSPIERTISKIKGLVRAPQVYILPPPAEQLSRKDVSLTCLVVGFNPGDISVEWTSNGHTEENYKDTAPVLDSDGSYFIYSKLNMKTSKWEKTDSFSCNVRHEGLKNYYLKKTISRSPGK
# light: MKLPVRLLVLMFWIPASSSDVVMTQTPLSLPVSLGDQASISCRSSQSLVHSNGNTYLHWYLQKPGQSPKLLIYKVSNRFSGVPDRFSGSGSGTDFTLKISRVEAEDLGVYFCSQSTHVPPTFGGGTKLEIKRADAAPTVSIFPPSSEQLTSGGASVVCFLNNFYPKDINVKWKIDGSERQNGVLNSWTDQDSKDSTYSMSSTLTLTKDEYERHNSYTCEATHKTSTSPIVKSFNRNEC
# Molecular target: T1, Eag1 currents (Homo sapiens, UniProt O95259)
# T1 construct: expressed in transfected cells; host or cells: HEK293
# T1 sequence (O95259 1-962 isoform O95259-2): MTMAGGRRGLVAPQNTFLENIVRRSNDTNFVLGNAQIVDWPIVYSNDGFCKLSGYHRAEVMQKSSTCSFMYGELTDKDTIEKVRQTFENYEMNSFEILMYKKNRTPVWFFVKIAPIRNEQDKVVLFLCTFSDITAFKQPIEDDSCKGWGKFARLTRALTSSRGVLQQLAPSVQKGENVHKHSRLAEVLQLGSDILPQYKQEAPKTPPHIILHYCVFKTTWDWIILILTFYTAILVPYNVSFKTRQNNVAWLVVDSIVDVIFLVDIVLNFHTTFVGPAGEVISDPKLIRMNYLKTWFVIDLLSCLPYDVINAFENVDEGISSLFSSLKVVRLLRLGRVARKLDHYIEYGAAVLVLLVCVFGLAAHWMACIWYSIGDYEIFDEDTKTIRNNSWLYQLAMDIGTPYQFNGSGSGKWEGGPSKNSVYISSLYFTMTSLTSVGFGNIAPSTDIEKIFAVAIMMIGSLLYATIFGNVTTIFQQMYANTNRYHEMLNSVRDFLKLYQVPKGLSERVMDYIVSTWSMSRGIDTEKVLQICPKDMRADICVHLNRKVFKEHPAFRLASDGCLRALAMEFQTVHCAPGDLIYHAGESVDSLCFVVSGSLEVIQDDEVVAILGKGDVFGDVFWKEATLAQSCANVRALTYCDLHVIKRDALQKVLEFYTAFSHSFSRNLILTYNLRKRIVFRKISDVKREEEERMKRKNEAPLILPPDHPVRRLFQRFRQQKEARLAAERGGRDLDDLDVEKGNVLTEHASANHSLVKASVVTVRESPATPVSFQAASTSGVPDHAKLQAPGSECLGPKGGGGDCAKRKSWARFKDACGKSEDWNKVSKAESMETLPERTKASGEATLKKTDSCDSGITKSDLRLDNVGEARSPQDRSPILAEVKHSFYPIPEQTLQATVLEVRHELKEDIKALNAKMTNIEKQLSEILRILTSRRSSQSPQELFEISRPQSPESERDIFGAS
# Experiment: Whole cell patch clamp, Eag1 currents in transfected HEK293 cells
# Assay type: cell-based
# Details: 300 nM, control antibody
# Method: To characterize effective affinity and specificity of the antibodies, block of Eag1 currents by ImAb3 in transfected HEK293 cells was tested in the whole cell configuration of the patch clamp technique. Currents were elicited by the depicted (FIG. 18a) pulse protocol (depolarization to +40 mV from a holding potential of −80 mV). Once a stable current level had been achieved, the antibody was applied to the bath chamber at a concentration of 300 nM, (approx 45 μg/ml). […] The antibody and the peptide were incubated (1:1 representing approximately 50 times molar excess of the peptide) at room temperature for 1 h and the mixture was used as described for the antibody alone.
molecule,measurement,value
B1,effect on current amplitudes,showed no effect on current amplitudes
